Test results taken from patent US20250346685A1 (published 2025).

What was measured:
[1] = molecular target: T1, human CD3 on T cells (Jurkat cells; human peripheral blood CD4+ and CD8+ T-cells) (human, UniProt P07766 23-207); experiment: flow cytometry on human peripheral blood CD4+ T-cells
T1 construct: whole, on cells; also called CD4T; CD4 + T
Method: (§1) Fresh human peripheral blood was taken and PBMC was isolated by Ficoll. Paque Plu (GE, 17-1440-03). PBMC was adjusted to 5×10⁵ cells/mL with 4% calf serum (Hyclone, SH30626.06), 100 μL/well was added to a 96-well U-plate, the supernatant was centrifuged off and 100 μL of gradient diluted antibody (with starting concentration of 1800 nM, 3-fold dilution, 10 gradients) was added to each well and incubated for 60 min at 4° C. 50 μL/well of Alexa Fluro647 labeled goat anti-human IgG Fc (1:300 dilution) was added to the secondary antibody, with ice bath for 20 min, and 50 μL/well PI added after washing once, incubated for 5 min, and flow cytometer (BD C6) was used for detection. The control antibody REGN5458 was synthesized and prepared according to US20200024356.

[2] = molecular target: T2, human CD3εγ-Fc heterodimer (human); experiment: SPR (Biacore T200), antigen amine-coupled on CM5 chip, antibody as analyte, 1:1 model
T2 construct: also called human CD3εγ recombinant protein; human CD3εγ protein
T2 chain 1: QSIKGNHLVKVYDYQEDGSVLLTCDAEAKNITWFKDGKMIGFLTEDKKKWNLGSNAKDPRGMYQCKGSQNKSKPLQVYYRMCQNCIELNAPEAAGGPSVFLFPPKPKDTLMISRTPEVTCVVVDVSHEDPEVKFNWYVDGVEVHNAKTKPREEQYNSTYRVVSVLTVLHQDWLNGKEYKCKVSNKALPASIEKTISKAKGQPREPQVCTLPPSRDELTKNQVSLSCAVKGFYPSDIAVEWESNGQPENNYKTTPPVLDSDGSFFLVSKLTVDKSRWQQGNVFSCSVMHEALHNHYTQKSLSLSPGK
T2 chain 2: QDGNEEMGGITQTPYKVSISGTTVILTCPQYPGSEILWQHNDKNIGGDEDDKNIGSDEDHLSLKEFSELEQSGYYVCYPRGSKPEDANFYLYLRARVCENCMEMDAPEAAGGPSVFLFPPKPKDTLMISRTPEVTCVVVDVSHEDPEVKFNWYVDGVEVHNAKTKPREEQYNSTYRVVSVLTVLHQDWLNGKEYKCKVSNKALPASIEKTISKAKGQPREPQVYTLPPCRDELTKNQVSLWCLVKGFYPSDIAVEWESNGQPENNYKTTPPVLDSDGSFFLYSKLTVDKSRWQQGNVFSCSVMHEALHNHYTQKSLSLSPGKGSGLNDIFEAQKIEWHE
Method: 10 μg/mL human or cynomolgus monkey BCMA or CD3εγ recombinant antigen was bound to a CM5 chip (GE healthcare) by amino conjugating, while the amount of antigen bound was controlled to approximately 200 RU. After baseline plateau, gradient diluted antibodies (7 gradients of 2-fold dilutions from 10 μg/mL) were flowed through the chip at a flow rate of 30 μL/min for a binding time of 350 seconds and a dissociation time of 600 seconds. Kinetic constants were fitted using Biacore T200 evaluation software with a 1:1 binding model.

[3] = molecular target: T1, human CD3 on T cells (Jurkat cells; …); experiment: flow cytometry on human peripheral blood CD8+ T-cells
Method: as §1

B1: BCMA × CD3 κλ004 (bispecific antibody, human IgG4 S228P, kappa, lambda)
light 1: DIVLTQSPASLAVSPGQRATITCRASKSVTTSGYSYIHWYQKKPGQPPKLLIYLASDLEAGVPARFSGSGSGTDFTLTINPVEAEDTANYYCQHSRELPWTFGQGTKVEIKRTVAAPSVFIFPPSDEQLKSGTASVVCLLNNFYPREAKVQWKVDNALQSGNSQESVTEQDSKDSTYSLSSTLTLSKADYEKHKVYACEVTHQGLSSPVTKSFNRGEC
heavy 1: QVQLVQSGSELKKPGASVKVSCKASGYIFTNFGMNWVREAPGQGLEWMGWINTYTGEQIYADGFTGRFVFSLDTSASTAYLQISSLKAEDTAVYFCARGEIYYGYDVGFVYWGQGTLVTVSSASTKGPSVFPLAPCSRSTSESTAALGCLVKDYFPEPVTVSWNSGALTSGVHTFPAVLQSSGLYSLSSVVTVPSSSLGTKTYTCNVDHKPSNTKVDKRVESKYGPPCPPCPAPEFEGGPSVFLFPPKPKDTLMISRTPEVTCVVVDVSQEDPEVQFNWYVDGVEVHNAKTKPREEQFNSTYRVVSVLTVLHQDWLNGKEYKCKVSNKGLASSIEKTISKAKGQPREPQVCTLPPSQEEMTKNQVSLSCAVKGFYPSDIAVEWESNGQPENNYKTTPPVLDSDGSFFLVSKLTVDKSRWQEGNVFSCSVMHEALHNHYTQKSLSLSLGK
light 2: QAVVTQEPSLTVSPGGTVTLTCRSSTGAVTTSNYANWVQEKPGQAPRGLIGGTNKRAPWTPARFSGSLLGGKAALTITGAQAEDEAEYYCVLWYSNLWVFGGGTKLTVLGQPKAAPSVTLFPPSSEELQANKATLVCLISDFYPGAVTVAWKADSSPVKAGVETTTPSKQSNNKYAASSYLSLTPEQWKSHRSYSCQVTHEGSTVEKTVAPTECS
heavy 2: EVQLVESGGGLVQPGGSLRLSCAASGFTFNTYAMNWVRKAPGKGLEWVGRIRSKYNNYATYYADSVKDRFTISRDDSKNSLYLQMNSLKTEDTAVYYCVRHGNFGNSYVSWFAYWGQGTLVTVSSASTKGPSVFPLAPCSRSTSESTAALGCLVKDYFPEPVTVSWNSGALTSGVHTFPAVLQSSGLYSLSSVVTVPSSSLGTKTYTCNVDHKPSNTKVDKRVESKYGPPCPPCPAPEFEGGPSVFLFPPKPKDTLMISRTPEVTCVVVDVSQEDPEVQFNWYVDGVEVHNAKTKPREEQFNSTYRVVSVLTVLHQDWLNGKEYKCKVSNKGLASSIEKTISKAKGQPREPQVYTLPPCQEEMTKNQVSLWCLVKGFYPSDIAVEWESNGQPENNYKTTPPVLDSDGSFFLYSKLTVDKSRWQEGNVFSCSVMHEALHNHYTQKSLSLSLGK
notes: also called BCMA×CD3 κλ bispecific antibody
- EC50 [1]: 79 nM
- Kd [2]: 32 nM
- EC50 [3]: 67 nM
